Laboratory results published in patent publication US20230406948A1 (APEXIGEN, published 2023).

B1: APX005 S267E mutant (antibody, human IgG1, V domains shown)
VH: QVQLVESGGGVVQPGRSLRLSCAASGFSFSSTYVCWVRQAPGKGLEWIACIYTGDGTNYSASWAKGRFTISKDSSKNTVYLQMNSLRAEDTAVYFCARPDITYGFAINFWGPGTLVTVSS
VL: DIQMTQSPSSLSASVGDRVTIKCQASQSISSRLAWYQQKPGKPPKLLIYRASTLASGVPSRFSGSGSGTDFTLTISSLQPEDVATYYCQCTGYGISWPIGGGTKVEIK
B2: CP870893 (antibody, V domains shown)
VH: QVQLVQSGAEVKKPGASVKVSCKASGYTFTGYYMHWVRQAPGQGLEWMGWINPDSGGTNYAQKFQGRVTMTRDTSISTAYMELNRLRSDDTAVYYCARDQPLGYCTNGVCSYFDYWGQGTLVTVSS
VL: DIQMTQSPSSVSASVGDRVTITCRASQGIYSWLAWYQQKPGKAPNLLIYTASTLQSGVPSRFSGSGSGTDFTLTISSLQPEDFATYYCQQANIFPLTFGGGTKVEIK
B3: c19-21, chimeric 19-21 (rabbit Fab and human IgG1) (antibody, V domains shown)
VH: QSLEESGGRLVTPGTPLTLTCTVSGFDLSSNAMNWVRQAPGKGLEWIGYITISGSAGYASWAKGRFTISKTSTTVDLKISSPTTEDTATYFCARGYNTMAIWGPGTLVTVSS
VL: AQVLTQTPSPVSAPVGGTVTINCQSSQNVLINNRLAWYQQKPGQPPKLLIYDASKLASGVPSRFKGSGSGTQFTLTISGVQCDDAATYYCQAGYSSGDGNAFGGGTEVVVK
B4: cR-8, chimeric R-8 (rabbit Fab and human IgG1) (antibody, V domains shown)
VH: QSLEESGGDLVKPGASLTLTCTASGFSFSSTYVCWVRQAPGKGLEWIACIYTGDGTNYSASWAKGRFTISKPSSTTVTLQMTSLTPADTATYFCARPDITYGFAINFWGPGTLVTVSS
VL: DIVMTQTPSSASEPVGGTVTIKCQASQSISSRLAWYQQKPGQPPKLLIYRASTLASGVPSRFKGSGSGTEFTLTISDLECADAATYYCQCTGYGISWPIGGGTEVVVK
B5: cR-3, chimeric R-3 (rabbit Fab and human IgG1) (antibody, V domains shown)
VH: QSLEESGGDLVKPGASLTLTCTASGFSFSDSFWIAWVRQAPGKGLEWIGCIHALSSGSTYYANWARGRFTISKTSSTTVTLQMNSLTAADTATYFCARSYAGYADYNVATGLNLWGPGTLVTVSS
VL: DVVMTQTPSSASAAVGGTVTTKCQASQSIGSYLAWYQQKPGQRPKLLIYAASNLASGVPSRFKGSRSGTEYTLTISGVQREDAATYYCLGSFTGSDTTFGGGTELEIL
B6: cR-33, chimeric R-33 (rabbit Fab and human IgG1) (antibody, V domains shown)
VH: QSLEESGGDLVKPGASLTLTCTASGFSFSSSYWICWVRQAPGKGLEWIACINTGSSVTTVYARWAKGRFTISKASSTTVTLQMTSLTAADTATYFCARYIIPGYNFNLWGPGTLVTVSS
VL: AYDMTQTPASVEVAVGGTVTINCQASQSISSYLYWYQQKPGQPPKLLIYDASKLASGVPSRFKGSGSGTQFTLTITGVECADAATYYCQQGYSHINVDNIFGGGTEVVVK
B7: 19-21 rabbit anti-CD40 agonist antibody (antibody, V domains shown)
VH: B3 VH
VL: B3 VL
notes: Whether the rabbit or the chimeric form was used there is not clear

Assays:
[1] = target: T1, human CD40 on cells (native CD40 on Ramos cells, human B cells, human monocyte-derived dendritic cells); cell … (human, UniProt P25942 21-193); assay: FACS on live Ramos cells, goat anti-human IgG (H+L) PE
T1 construct: Endogenous CD40 on human cells; also called native CD40 protein; CD40 positive cells
Protocol: (§1) In another experiment, the ability of the CD40 antibodies to bind to native CD40 protein was determined by FACS analysis with live Ramos cells. Ramos cells were harvested and blocked with 1.5 ml blocking buffer (0.1% BSA/PBS) for 30 minutes. Antibodies at various concentrations were added to cells and incubated for 1 hour. After washing, 50 ul Goat-anti-human IgG (H+L) PE antibody at 1:1000 dilution in blocking solution was added and incubated for 30 minutes. Cells were then washed with PBS and were re-suspended with […] and analyzed by FACS. The antibodies tested were the 19-21 rabbit anti-CD40 agonist antibody, SGN-40 developed by Seattle Genetics and CP870893 from Pfizer.

CD40-Fc protein = target: T2, CD40-Fc protein (Homo sapiens (Human), UniProt P25942 21-193); assay: ELISA, plates coated with CD40-Fc protein, OD405nm
T2 construct: not shown: Fc
Text: In order to assess the ability of the APX005 […] mutant to bind to CD40, APX005 S267E heavy chain and light chain plasmids were purified from transformed bacteria and transfected into 293-6E cell. Four days after transfection, antibody-containing culture supernatants were collected and tested for binding to CD40 using ELISA (ELISA plates coated with CD40-Fc protein).

[2] = target: T1, human CD40 on cells (native CD40 on …); assay: FACS on live Ramos cells, goat anti-human IgG PE
Protocol: as §1

[3] = target: T1, human CD40 on cells (native CD40 on …); assay: cell-based or functional assay
[4] = target: T1, human CD40 on cells (native CD40 on …); assay: cell-based or functional assay; remark: listed apart in the source

T1 sequence (P25942 21-193): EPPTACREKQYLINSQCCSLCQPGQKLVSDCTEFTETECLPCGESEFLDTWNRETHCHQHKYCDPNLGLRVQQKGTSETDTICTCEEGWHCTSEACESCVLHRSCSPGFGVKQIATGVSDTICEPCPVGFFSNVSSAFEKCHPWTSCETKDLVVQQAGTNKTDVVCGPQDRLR
T2 sequence (P25942 21-193 limits assumed): as the sequence (P25942 21-193) above

Binder | EC50 [1] | Pro-apoptosis activity (IC50) [4] | further results
B1 | 0.0266 µg/mL | – | EC50 (CD40-Fc protein): 0.0551 µg/mL; fold higher affinity than CP870893 [2]: 6 fold; EC50 (ng/ml), CD40 agonist activity: up-regulation of CD86 on human B cells [3]: 4.15 ng/mL
B2 | 0.171 µg/mL | – | EC50 (ng/ml), CD40 agonist activity: up-regulation of CD86 on human B cells [3]: 37 ng/mL
B3 | – | 0.02 µg/mL | –
B4 | – | 0.45 µg/mL | –
B5 | – | 0.57 µg/mL | –
B6 | – | 0.9 µg/mL | –
B7 | 0.0201 µg/mL | – | –
